The values below come from publication PMC8260207.

The assay deals with Purified human ribosomes from HEK293 cells (human).

“purified, recombinant human cGAS (from UniProt Q8N884 1-522) (natural protein)” registered a cGAMP synthesis by cGAS (thin-layer chromatography) with saturating DNA, fold stimulation by pre-incubation with purified ribosomes, cGAS at 150–300 nM of 8 fold.
